For one molecule, fold co-precipitated (IPO5/Ran) against Ran T24N results are on record in article PMC3458550.

For this assay, the target named is flag-tagged Ran Q69L (GTPase-inactive mutant, RanGTP locked form), P62826. The assay can be described thus: co-IP. The conditions noted are these: remark: other sources report otherwise.

B1: EGFP-tagged full length human IPO5 (importin 5), O00410-3 1-1115 (natural protein)
chain: MPEDQVGKLEATENTISAMAAAAAEQQQFYLLLGNLLSPDNVVRKQAEETYENIPGQSKITFLLQAIRNTTAAEEARQMAAVLLRRLLSSAFDEVYPALPSDVQTAIKSELLMIIQMETQSSMRKKVCDIAAELARNLIDEDGNNQWPEGLKFLFDSVSSQNVGLREAALHIFWNFPGIFGNQQQHYLDVIKRMLVQCMQDQEHPSIRTLSARATAAFILANEHNVALFKHFADLLPGFLQAVNDSCYQNDDSVLKSLVEIADTVPKYLRPHLEATLQLSLKLCGDTSLNNMQRQLALEVIVTLSETAAAMLRKHTNIVAQTIPQMLAMMVDLEEDEDWANADELEDDDFDSNAVAGESALDRMACGLGGKLVLPMIKEHIMQMLQNPDWKYRHAGLMALSAIGEGCHQQMEGILNEIVNFVLLFLQDPHPRVRYAACNAVGQMATDFAPGFQKKFHEKVIAALLQTMEDQGNQRVQAHAAAALINFTEDCPKSLLIPYLDNLVKHLHSIMVLKLQELIQKGTKLVLEQVVTSIASVADTAEEKFVPYYDLFMPSLKHIVENAVQKELRLLRGKTIECISLIGLAVGKEKFMQDASDVMQLLLKTQTDFNDMEDDDPQISYMISAWARMCKILGKEFQQYLPVVMGPLMKTASIKPEVALLDTQDMENMSDDDGWEFVNLGDQQSFGIKTAGLEEKSTACQMLVCYAKELKEGFVEYTEQVVKLMVPLLKFYFHDGVRVAAAESMPLLLECARVRGPEYLTQMWHFMCDALIKAIGTEPDSDVLSEIMHSFAKCIEVMGDGCLNNEHFEELGGILKAKLEEHFKNQELRQVKRQDEDYDEQVEESLQDEDDNDVYILTKVSDILHSIFSSYKEKVLPWFEQLLPLIVNLICPHRPWPDRQWGLCIFDDVIEHCSPASFKYAEYFLRPMLQYVCDNSPEVRQAAAYGLGVMAQYGGDNYRPFCTEALPLLVRVIQSADSKTKENVNATENCISAVGKIMKFKPDCVNVEEVLPHWLSWLPLHEDKEEAVQTFNYLCDLIESNHPIVLGPNNTNLPKIFSIIAEGEMHEAIKHEDPCAKRLANVVRQVQTSGGLWTECIAQLSPEQQAAIQELLNSA
B1 displayed a fold co-precipitated (IPO5/Ran) against Ran T24N of 2 fold.
